Residue numbers refer to the chain shown, from its start. Read-outs that look alike come from different tables or passages of the source. Each block holds one binder with its values, some of them ahead of it.
Experiments:
[1] = target: T1, human DLL3 on SHP-77 cells (human, UniProt Q9NYJ7 27-618); assay: flow cytometry, SHP-77 cells
T1 construct: also called DLL3-expressing cells (SHP-77)
T1 sequence: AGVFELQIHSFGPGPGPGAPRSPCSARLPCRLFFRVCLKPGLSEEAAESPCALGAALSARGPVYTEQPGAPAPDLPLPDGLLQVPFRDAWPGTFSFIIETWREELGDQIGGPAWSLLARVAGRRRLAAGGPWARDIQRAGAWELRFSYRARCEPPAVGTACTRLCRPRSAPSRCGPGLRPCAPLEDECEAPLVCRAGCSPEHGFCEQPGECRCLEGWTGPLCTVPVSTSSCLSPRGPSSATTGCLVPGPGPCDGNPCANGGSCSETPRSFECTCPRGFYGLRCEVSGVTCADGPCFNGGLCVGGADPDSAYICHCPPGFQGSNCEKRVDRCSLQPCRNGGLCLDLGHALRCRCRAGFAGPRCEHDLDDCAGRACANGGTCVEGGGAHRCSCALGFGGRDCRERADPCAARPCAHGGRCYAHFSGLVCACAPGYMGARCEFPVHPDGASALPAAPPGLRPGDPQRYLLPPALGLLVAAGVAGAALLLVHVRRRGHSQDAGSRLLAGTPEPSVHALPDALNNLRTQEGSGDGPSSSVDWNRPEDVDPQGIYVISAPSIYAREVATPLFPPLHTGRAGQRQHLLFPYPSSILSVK
Description: (§1) SHP-77 and HEK293-cyno DLL3 cells were cultured. The culture medium for SHP-77 cells were RPMI1640+10% FBS, and the culture medium for HEK293 cyno DLL3 cells was DMEM+10% FBS+200 μg/ml Hygromycin. The cells were cultured in a T75 cell culture flask at a 37° C. 5% CO₂ incubator. When using cells, they are washed with sterile DPBS, digested with 0.25% trypsin EDTA for about 5 minutes, and then stopped with a complete medium.
(§2) The digested cells were centrifuged at 1000 rpm for 5 min at room temperature. The supernatant was discarded and the cells were resuspended in 100 μL of 1% BSA (in PBS). The cells were counted and adjusted to a cell density of 1E6/m. The dilute cells were seeded in a 96-well round-bottom culture plate (corning 3799), and centrifuged at 1500 rpm for 5 min at 4° C. The supernatant was discarded and the cells were stored at 4° C. until use. Antibody samples to be tested were diluted with 1% BSA (in PBS) at a starting concentration of 100 nM, downwards by a 10-fold gradient for 7 concentrations. The cells were resuspended with the diluted antibody at 100 μL/well and incubated for 1 hour at 4° C. The cells were centrifuged at 1500 rpm for 5 minutes at 4° C. and the supernatant was discarded. The cells were resuspended and washed with 160 μL of 1% BSA (in PBS), centrifuged at 1500 rpm for 5 minutes at 4° C. The supernatant was discarded. The secondary antibody (goat anti human IgG Fc PE) was diluted 1:200 with 1% BSA (in PBS) according to the manufacturer's instructions and the cells were resuspended with the diluted secondary antibody. 100 µL/well, and incubated for 0.5 h at 4° C. The cells were centrifuged at 1500 rpm for 5 minutes at 4° C. and the supernatant was discarded. The cells were resuspended and washed with 160 μL of 1% BSA (in PBS), centrifuged at 1500 rpm for 5 minutes at 4° C. The supernatant was discarded. The cells were resuspended in 100 μL of 1% BSA (in PBS), and filtered across a 300 mesh gauze. The mean fluorescence intensity of the PE channels was measured by flow cytometry.
(§3) The analyzed mean fluorescence intensity was imported into Graphpad to analyze the median-binding concentration (hereinafter referred to as EC50) of antibody and cell and the top mean fluorescence intensity (Top MFI).

[2] = target: T2, Cynomolgus monkey DLL3 on HEK293 cells (HEK293-cyno DLL3) (Cynomolgus monkey, UniProt Q9NYJ7 27-618 (human entry)); assay: flow cytometry, HEK293-cyno DLL3 cells
T2 chain: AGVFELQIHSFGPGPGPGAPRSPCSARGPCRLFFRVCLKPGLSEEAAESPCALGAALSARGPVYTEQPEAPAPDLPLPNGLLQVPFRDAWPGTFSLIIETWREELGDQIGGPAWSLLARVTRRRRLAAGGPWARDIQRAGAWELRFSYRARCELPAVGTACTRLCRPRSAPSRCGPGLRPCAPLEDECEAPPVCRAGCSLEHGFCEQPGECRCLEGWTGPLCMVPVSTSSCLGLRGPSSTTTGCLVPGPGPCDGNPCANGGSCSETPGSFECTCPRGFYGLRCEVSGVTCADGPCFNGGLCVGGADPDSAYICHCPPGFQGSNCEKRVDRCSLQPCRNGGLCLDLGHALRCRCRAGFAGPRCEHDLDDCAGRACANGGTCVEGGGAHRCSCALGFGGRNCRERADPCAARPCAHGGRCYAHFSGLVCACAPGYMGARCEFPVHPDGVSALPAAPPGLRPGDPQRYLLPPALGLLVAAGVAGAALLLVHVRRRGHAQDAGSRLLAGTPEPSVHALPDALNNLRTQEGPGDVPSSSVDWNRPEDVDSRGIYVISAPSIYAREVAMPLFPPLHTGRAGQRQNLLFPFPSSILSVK
Description: as §1, §2, §3

[3] = target: T1, human DLL3 on SHP-77 cells; assay: flow cytometry, SHP-77 cells; remark: listed apart in the source
Description: SHP-77 cells were cultured. The culture medium for SHP-77 cells was RPMI1640+10% FBS. The cells were cultured in a T75 cell culture flask at a 37° C. 5% CO₂ incubator. When using cells, they are washed with sterile DPBS, digested with 0.25% trypsin EDTA for about 5 minutes, and then stopped with a complete medium.
as §2, with “plated” for “seeded”, “antibody,” for “antibody.”
as §3

B1: 39E2D11-1 mouse hybridoma-derived anti-DLL3 chimeric antibody (antibody, V domains shown)
VH: QVQLQQSGAELVKPGASVKMSCKASGYTFISYWITWVKQRPGQGLEWIGDIYPGSGSTTNYNEKFKSKATLTVDTSSSTAYMQLSSLTSEDSAVYYCARETTVGGAYAMDYWGQGTSVTVSS
VL: DIVLTQSPATLSVTPGDSVSLSCRASQSINNNLHWYQQKSHESPRLLIKYVSQSISGIPSRFSGSGSGTDFTLTINSVETEDFGMYFCQQTNSWPLTFGAGTKLELK
EC50 [1]: 850 pM | Top MFI [1]: 999 MFI | EC50 [2]: 1030 pM | Top MFI [2]: 445 MFI | EC50 [3]: 1490 pM | Top MFI [3]: 1650 MFI

B2: 45E4D7 mouse hybridoma-derived anti-DLL3 chimeric antibody (antibody, V domains shown)
VH: QVQLQQPGAELVKPGTSVKLSCKASGYTFTSHWITWVKQRPGQGLEWIGDIYPISGSTNNNEKFRNKATLTVDTSSSTAYMQLSSLTSEDSAVYFCAKIITVGGAYVMDYWGQGTSVTVSS
VL: B1 VL with A9V, I29V, N30R, T74S, M85V, T91S
EC50 [1]: 680 pM | Top MFI [1]: 965 MFI | EC50 [2]: 710 pM | Top MFI [2]: 454 MFI | EC50 [3]: 894 pM | Top MFI [3]: 1560 MFI

B3: 26C4D2 mouse hybridoma-derived anti-DLL3 chimeric antibody (antibody, V domains shown)
VH: QVQLQQPGAELVKPGASVKLSCKASGYSFTSYWMHWVKQRPGQGLEWIGMIHPTLGDTNYNEKFKSKATLTVDKSSSTAYMELSSLTSEDSAVYYCARLGSLSMMDYWGQGTSVTVSS
VL: DIQMTQTTSSLSASLGDRVTISCSASQGISNYLNWYQQKPDGTVKLLIYYTSSLHSGVPARFSGSGSGTDYSLTISNLEPEDIAIYYCQQYSKFPYTFGGGTKLEIK
EC50 [1]: 600 pM | Top MFI [1]: 1050 MFI | EC50 [2]: 430 pM | Top MFI [2]: 421 MFI

B6: 27E10C5 mouse hybridoma-derived anti-DLL3 chimeric antibody (antibody, V domains shown)
VH: QVQLQQSGAELVKPGASVKISCKASGYAFSSQWMNWVKQRPGKGLEWIGQIYPGNGDTNYNGKFKGKATLTADKSSSTAYIQLSSLTSEDSAVYFCARWFAYWGQGTLVTVSA
VL: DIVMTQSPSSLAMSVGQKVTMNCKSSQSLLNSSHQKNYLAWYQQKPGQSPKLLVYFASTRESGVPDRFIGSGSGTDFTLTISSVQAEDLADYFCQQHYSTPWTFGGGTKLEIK
EC50 [1]: 1200 pM | Top MFI [1]: 813 MFI | EC50 [2]: 1390 pM | Top MFI [2]: 396 MFI

Next, values leading:

EC50 [1]: 1180 pM | Top MFI [1]: 1010 MFI | EC50 [2]: 670 pM | Top MFI [2]: 475 MFI | EC50 [3]: 1200 pM | Top MFI [3]: 1570 MFI
B4: 46A5A4 mouse hybridoma-derived anti-DLL3 chimeric antibody (antibody, V domains shown)
VH: QVQLQQSDAELVKPGASVKISCKVSGYTFTDHTIHWMKQRPEQGLEWIGYIYPRDGYTMYNEKFKGKATLTADKSSSTAYMQLNSLTSEDSAVHFCARAFHALDYWGQGTSVTVSS
VL: B3 VL with I21F, S22T, V44I, A60S, I85T, F94L

EC50 [1]: 650 pM | Top MFI [1]: 990 MFI | EC50 [2]: 530 pM | Top MFI [2]: 480 MFI
B5: 48B6D7 mouse hybridoma-derived anti-DLL3 chimeric antibody (antibody, V domains shown)
VH: QVQLQQPGAELVKPGTSVKLSCEASGYTFSNYWMQWVRQRPGQGLEWIGMILPNSDITNYNENFQTKATLTVDKSSSTAYMQLSSLTSEDSAVYYCARQARYSAMDYWGQGTSVTVSS
VL: B3 VL with A13V, S22N, S53N, A60S, I85T, Q90H

— patent US20240239878A1 (SHANGHAI QILU PHARMACEUTICAL RESEARCH AND DEVELOPMENT CENTRE, published 2024)
